In the data set the target is METTL3;METTL14 (human?;human?, UniProt Q86U44;Q9HCE5 1-580;1-456, |). Kind of data set: filter binding.
Sequence of METTL3;METTL14 (Q86U44 whole entry, chain 1 of 2): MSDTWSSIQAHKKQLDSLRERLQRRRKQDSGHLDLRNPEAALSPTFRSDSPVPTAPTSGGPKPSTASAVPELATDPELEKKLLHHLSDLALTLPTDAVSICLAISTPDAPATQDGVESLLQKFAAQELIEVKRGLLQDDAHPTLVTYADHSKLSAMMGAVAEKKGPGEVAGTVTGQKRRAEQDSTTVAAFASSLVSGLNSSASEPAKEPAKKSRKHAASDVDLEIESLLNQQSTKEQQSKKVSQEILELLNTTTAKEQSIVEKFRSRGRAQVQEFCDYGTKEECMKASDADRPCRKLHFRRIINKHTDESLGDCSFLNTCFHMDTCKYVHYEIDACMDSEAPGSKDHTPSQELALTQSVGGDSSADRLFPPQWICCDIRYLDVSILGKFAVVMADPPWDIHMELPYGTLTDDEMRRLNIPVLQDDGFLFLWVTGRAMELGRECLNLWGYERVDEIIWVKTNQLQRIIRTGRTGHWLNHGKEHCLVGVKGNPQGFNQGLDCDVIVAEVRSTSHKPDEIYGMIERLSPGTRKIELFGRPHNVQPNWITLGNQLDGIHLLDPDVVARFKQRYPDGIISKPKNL
Sequence of METTL3;METTL14 (Q9HCE5 whole entry, chain 2 of 2): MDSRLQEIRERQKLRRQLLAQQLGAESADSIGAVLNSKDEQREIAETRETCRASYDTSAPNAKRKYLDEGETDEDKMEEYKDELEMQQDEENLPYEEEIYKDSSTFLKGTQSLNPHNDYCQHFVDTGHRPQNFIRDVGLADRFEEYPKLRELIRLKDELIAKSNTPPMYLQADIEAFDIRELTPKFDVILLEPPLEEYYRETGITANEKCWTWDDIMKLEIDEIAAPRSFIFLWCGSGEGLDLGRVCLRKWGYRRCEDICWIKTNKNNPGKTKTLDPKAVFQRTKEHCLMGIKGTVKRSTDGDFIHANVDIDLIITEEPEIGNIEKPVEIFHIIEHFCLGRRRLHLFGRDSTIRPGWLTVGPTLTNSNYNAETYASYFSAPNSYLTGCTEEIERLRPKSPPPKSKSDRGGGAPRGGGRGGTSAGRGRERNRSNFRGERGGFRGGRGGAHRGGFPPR

B1: 4x GGACU RNA probe (ssRNA)
RNA: GGACUGGACUGGACUGGACU
Regarding B1, the binding result is on record as “binds”.

For the origin of these results see article PMC5855951.
